Series [1] concerns the target T1, Photobacterium phosphoreum strain JT-ISH-467 β-galactoside-α2,3-sialyltransferase N2C0 variant F318AE319A (ISH467-N2C0-F318AE319A); Phe318 and Glu319 of SEQ ID N (Photobacterium phosphoreum, UniProt A5LHX0, E342A/F341A).
T1 sequence (A5LHX0 with tags, fused parts or gaps F341A/E342A): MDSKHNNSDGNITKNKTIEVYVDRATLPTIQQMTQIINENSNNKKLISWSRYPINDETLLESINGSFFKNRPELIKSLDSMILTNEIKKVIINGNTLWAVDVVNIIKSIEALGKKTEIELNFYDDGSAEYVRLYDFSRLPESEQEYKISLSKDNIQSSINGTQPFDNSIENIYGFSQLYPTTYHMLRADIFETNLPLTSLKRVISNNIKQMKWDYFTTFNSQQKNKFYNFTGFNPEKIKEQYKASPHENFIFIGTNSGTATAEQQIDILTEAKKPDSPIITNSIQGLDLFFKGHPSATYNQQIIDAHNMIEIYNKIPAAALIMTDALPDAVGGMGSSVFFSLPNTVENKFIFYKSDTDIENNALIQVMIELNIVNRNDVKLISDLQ
The experiment in a line: Sialyltransferase kinetics for lactose and CMP-sialic acid, F318A E319A variant enzyme. The format is biochemical. The conditions noted are these: not containing His×6-Tag. How it is done: The β-galactoside-α2,3-sialyltransferase activities of variant-type N2C0 proteins (four variants: F318A, E319A, F318AE319A, and S337A) each containing His×6-Tag purified in Example 1 (2) were measured. The sialyltransferase activity was measured by the method as described in J. Biochem., 120, 104-110, (1996) (hereby incorporated by reference in its entirety). […] The enzyme reaction was performed at 30° C. for 5 minutes. After the completion of the reaction, 1.97 mL of 5 mM phosphate buffer (pH 6.8) was added to the reaction solution, which was then applied to a Dowex 1×8 (PO4^3− form, 0.2×2 cm, manufactured by Bio-Rad Laboratories, Inc.) column. The reaction product contained in the eluate (0 to 2 mL) from this column, i.e., the radioactivity contained in sialyllactose was measured to calculate the enzyme activity. One enzyme unit (1 U) is defined as the amount of the enzyme required to release one micromole of sialic acid per minute.

Series [2] deals with T2, Photobacterium phosphoreum strain JT-ISH-467 β-galactoside-α2,3-sialyltransferase N2C0 (ISH467-N2C0), wild type, SEQ ID NO: 2, not containing His×6-Tag (Photobacterium phosphoreum, UniProt A5LHX0).
T2 sequence (A5LHX0 with tags, fused parts or gaps): T1 sequence (A5LHX0 with tags, fused parts or gaps F341A/E342A) with A318F, A319E
Nature of the series: Sialyltransferase kinetics for lactose and CMP-sialic acid, wild-type N2C0 enzyme. The format is biochemical.

Substrate in series [3]: CC(=O)N[C@H]1[C@H]([C@H](O)[C@H](O)CO)O[C@](OP(=O)(O)OC[C@H]2O[C@@H](n3ccc(N)nc3=O)[C@H](O)[C@@H]2O)(C(=O)O)C[C@@H]1O
The experiment in a line: purified protein, by the assay type. The conditions noted are these: not containing His×6-Tag, 30.0 °C.

Substrate in series [4]: OC[C@H]1O[C@@H](O[C@H]2[C@H](O)[C@@H](O)C(O)O[C@@H]2CO)[C@H](O)[C@@H](O)[C@H]1O
The experiment in a line: purified protein, by the assay type. The conditions noted are these: not containing His×6-Tag, 30.0 °C.

Substrate in series [5]: CC(=O)N[C@H]1[C@H]([C@H](O)[C@H](O)CO)O[C@](OP(=O)(O)OC[C@H]2O[C@@H](n3ccc(N)nc3=O)[C@H](O)[C@@H]2O)(C(=O)O)C[C@@H]1O
Nature of the series: purified protein, by the assay type. The format is biochemical, Photobacterium phosphoreum strain JT-ISH-467. The conditions noted are these: other: E319A variant enzyme, not containing His×6-Tag; 30.0 °C.

Substrate in series [6]: OC[C@H]1O[C@@H](O[C@H]2[C@H](O)[C@@H](O)C(O)O[C@@H]2CO)[C@H](O)[C@@H](O)[C@H]1O
The experiment in a line: purified protein, by the assay type. The format is biochemical, Photobacterium phosphoreum strain JT-ISH-467. Particulars: other: E319A variant enzyme, not containing His×6-Tag; 30.0 °C.

[7] abbreviates: other: wild-type N2C0 enzyme, pH 6.8.
[8] abbreviates: other: F318A E319A variant enzyme.

Changes are numbered by the printed parent chain. In names and notes the source's numbering stands.

`CC(=O)N[C@H]1[C@H]([C@H](O)[C@H](O)CO)O[C@](OP(=O)(O)OC[C@H]2O[C@@H](n3ccc(N)nc3=O)[C@H](O)[C@@H]2O)(C(=O)O)C[C@@H]1O` [CMP-sialic acid, cytidine monophosphate (CMP)-sialic acid]: the results for the Vmax in series [1] and in series [2] were 8.9 nmol/min and 7.3 nmol/min, respectively. Moreover, the kcat turned out to be 13.3 s⁻¹ in series [1] and 21.0 s⁻¹ in series [2].

Consider `OC[C@H]1O[C@@H](O[C@H]2[C@H](O)[C@@H](O)C(O)O[C@@H]2CO)[C@H](O)[C@@H](O)[C@H]1O` (stereo partly drawn) [Lactose, lactose], for which, in series [1], the Vmax is given as 7.2 nmol/min and the kcat is 10.8 s⁻¹. Also, in series [2], the Vmax stood at 3.9 nmol/min and the turnover number (kcat) came to 11.2 s⁻¹.

B1: Photobacterium phosphoreum strain JT-ISH-467 β-galactoside-α2,3-sialyltransferase N2C0 (ISH467-N2C0), wild type, SEQ ID NO: 2, not containing His×6-Tag … (protein)
chain: T1 sequence (A5LHX0 with tags, fused parts or gaps F341A/E342A) with A318F, A319E
As for B1, the Km was determined as 0.72 mM in series [3] (setting [7]) and 8.4 mM in series [4] (setting [7]).

B2: Photobacterium phosphoreum strain JT-ISH-467 β-galactoside-α2,3-sialyltransferase N2C0 variant E319A (ISH467-N2C0-E319A; Glu319 of SEQ ID NO: 2 replaced with … (protein)
chain: T1 sequence (A5LHX0 with tags, fused parts or gaps F341A/E342A) with A318F
Turning to B2, in series [5], the Km stood at 0.53 mM, the maximal velocity (Vmax) was found to be 3.2 nmol/min and the kcat was determined as 106.3 s⁻¹. Further, in series [6], the Michaelis constant (Km) is listed as 22 mM, the Vmax worked out at 0.012 µmol/min and the kcat worked out at 99.7 s⁻¹.

B3: Photobacterium phosphoreum strain JT-ISH-467 β-galactoside-α2,3-sialyltransferase N2C0 variant F318AE319A (ISH467-N2C0-F318AE319A; Phe318 and Glu319 of SEQ ID … (protein)
chain: T1 sequence (A5LHX0 with tags, fused parts or gaps F341A/E342A)
B3: the Michaelis-Menten constant (Km) was determined as 1.59 mM in series [3] (setting [8]) and 85 mM in series [4] (setting [8]).

The record behind these values is patent publication US20130122566A1, “NOVEL ENZYME PROTEIN, PROCESS FOR PRODUCTION OF THE ENZYME PROTEIN THE SAME, AND GENE ENCODING THE ENZYME PROTEIN THE SAME” (JAPAN TOBACCO INC., priority 2010, published 2013).
